In patent US20230256092A1 (SHIONOGI, published 2023):
Read-outs that look alike come from different tables or passages of the source.

T1: human CCR4 (human, UniProt P51679 1-360)
T1 construct: full length, on Expi293 cells; also called hCCR4
T1 sequence: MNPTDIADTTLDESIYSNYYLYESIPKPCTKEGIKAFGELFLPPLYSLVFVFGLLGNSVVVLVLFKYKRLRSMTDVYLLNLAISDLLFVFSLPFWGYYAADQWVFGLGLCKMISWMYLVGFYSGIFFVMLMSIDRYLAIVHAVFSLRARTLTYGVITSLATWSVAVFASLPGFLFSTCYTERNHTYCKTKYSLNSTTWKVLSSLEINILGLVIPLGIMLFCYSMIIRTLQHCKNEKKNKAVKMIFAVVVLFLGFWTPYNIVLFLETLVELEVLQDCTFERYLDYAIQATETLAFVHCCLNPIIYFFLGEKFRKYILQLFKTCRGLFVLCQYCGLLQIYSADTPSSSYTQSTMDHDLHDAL

T2: N-ter hCCR4-hCCR8 (human)
T2 construct: chimera on Expi293 cells; also called human CCR8 with the N-terminal region substituted with that of human CCR4
T2 chain: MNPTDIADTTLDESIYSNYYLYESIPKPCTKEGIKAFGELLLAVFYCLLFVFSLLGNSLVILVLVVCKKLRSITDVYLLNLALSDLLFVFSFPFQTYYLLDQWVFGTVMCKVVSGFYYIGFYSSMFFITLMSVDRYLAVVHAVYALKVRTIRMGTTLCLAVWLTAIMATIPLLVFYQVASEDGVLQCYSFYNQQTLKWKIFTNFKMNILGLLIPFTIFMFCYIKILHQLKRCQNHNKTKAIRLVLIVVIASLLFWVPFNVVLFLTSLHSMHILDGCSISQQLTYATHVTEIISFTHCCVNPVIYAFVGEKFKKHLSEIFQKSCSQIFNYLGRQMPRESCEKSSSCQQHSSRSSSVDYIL

T3: mouse CCR8 (mouse, UniProt P56484 1-353)
T3 construct: full length, on Expi293 cells; also called mCCR8
T3 sequence: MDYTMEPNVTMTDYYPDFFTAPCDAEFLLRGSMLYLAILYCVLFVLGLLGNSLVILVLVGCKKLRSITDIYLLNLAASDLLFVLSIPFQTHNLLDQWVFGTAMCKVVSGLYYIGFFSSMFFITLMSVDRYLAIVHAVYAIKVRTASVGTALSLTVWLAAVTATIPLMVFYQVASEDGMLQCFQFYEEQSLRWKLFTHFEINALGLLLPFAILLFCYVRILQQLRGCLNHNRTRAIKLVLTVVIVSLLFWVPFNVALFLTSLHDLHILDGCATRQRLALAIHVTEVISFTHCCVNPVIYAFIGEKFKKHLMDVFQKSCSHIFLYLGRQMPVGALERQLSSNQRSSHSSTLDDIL


Legend:
human CCR8 [1] = target: T4, human CCR8 (human, UniProt P51685 1-355); test: cell-based or functional assay
human CCR8 [2] = target: T4, human CCR8; test: cell-based or functional assay; remark: listed apart in the source
human CCR8 [3] = target: T4, human CCR8; test: cell-based or functional assay; remark: listed apart in the source
human CCR4 = target: T1, human CCR4; test: flow cytometry on Expi293 transfectants
N-ter hCCR4-hCCR8 = target: T2, N-ter hCCR4-hCCR8; test: flow cytometry on Expi293 transfectants
mouse CCR8 = target: T3, mouse CCR8; test: flow cytometry on Expi293 transfectants
loop1 hCCR4-hCCR8 [4] = target: T5, loop1 hCCR4-hCCR8 (human, UniProt P51685 1-355); test: flow cytometry on Expi293 transfectants
T5 construct: chimera on Expi293 cells; hCCR8 94-107 replaced; also called loop1-human CCR4-substituted human CCR8

hCCR8 (Y17A) = target: T6, hCCR8 (Y17A) (human, UniProt P51685 1-355); test: flow cytometry on Expi293 transfectants
T6 construct: also called mutant in which Y at position 17 of human CCR8 is substituted for A

loop2 hCCR4-hCCR8 = target: T7, loop2 hCCR4-hCCR8 (human, UniProt P51685 1-355); test: FCM, Expi293 transfectants; Δ = significantly reduced binding activity vs wild-type hCCR8
T7 construct: chimera on Expi293 cells; hCCR8 172-202 replaced; also called loop2-human CCR4-substituted human CCR8

human CCR8 [5] = target: T4, human CCR8; test: cell-based or functional assay; remark: listed apart in the source
loop3 hCCR4-hCCR8 = target: T8, loop3 hCCR4-hCCR8 (human, UniProt P51685 1-355); test: FCM, Expi293 transfectants; blank cell = same binding activity as wild-type hCCR8
T8 construct: chimera on Expi293 cells; hCCR8 264-280 replaced

human CCR8 [6] = target: T4, human CCR8; test: cell-based or functional assay; remark: listed apart in the source
human CCR8 [7] = target: T4, human CCR8; test: cell-based or functional assay; remark: listed apart in the source
loop1 hCCR4-hCCR8 [8] = target: T5, loop1 hCCR4-hCCR8; test: FCM, Expi293 transfectants; Δ = significantly reduced binding activity vs wild-type hCCR8
hCCR8 (K35A) = hCCR8 (K35A) (human, UniProt P51685 1-355); test: flow cytometry on Expi293 transfectants

Binder | IC50 (nM), Ca2+ influx by 200 nM hCCL1 (human CCR8 [1]) [nM] | IC50 ratio (WT IC50/mutant IC50) (human CCR8 [2]) [ratio] | IC50 ratio (WT IC50/mutant IC50) (human CCR8 [3]) [ratio] | binding result (human CCR4) | binding result (N-ter hCCR4-hCCR8) | binding result (mouse CCR8) | binding result (loop1 hCCR4-hCCR8 [4]) | binding result (hCCR8 (Y17A)) | binding result (loop2 hCCR4-hCCR8) | Neutralizing activity IC50 (nM), Ca2+ influx by 100 nM hCCL1 (human CCR8 [5]) [nM] | binding result (loop3 hCCR4-hCCR8) | IC50 (nM), Ca2+ influx by 200 nM hCCL1 (human CCR8 [6]) [nM] | IC50 (nM), Ca2+ influx by 200 nM hCCL1 (human CCR8 [7]) [nM] | binding result (loop1 hCCR4-hCCR8 [8]) | binding result (hCCR8 (K35A))
h10A11 (IGKV4-1/IGHV3-73) (antibody, V domains shown) VH: EVQLVESGGGLVQPGGSLKLSCAASGFAFNTYALYWVRQASGKGLEWVGRIRSKSNNYATYYADSVKDRFTISRDDSKNTAYLQMNSLKTEDTAVYYCTRARFYYSDYGYAMDYWGQGTLVTVSS VL: DIVMTQSPDSLAVSLGERATINCRSSKSLLHSNGNTYLYWYQQKPGQPPKLLIYRMSNLASGVPDRFSGSGSGTDFTLTISSLQAEDVAVYYCMQHLEYPLTFGQGTKLEIKR | 0.17 | – | 1 | – | – | – | – | – | – | – | – | – | – | – | –
27G1 (antibody, V domains shown, mouse hybridoma antibody, purified) VH: EVQLVESGGRLVQPKGSLKLSCAASGFAFNTYAMYWIRQAPGKGLEWVARIRSKSNNYATYYADSVKDRFTISRDDSQSMLYLQMNNLKTEDTAMYYCVRARFYYSDYGYAMDYWGQGTSVTVSS VL: DIVMTQAAPSVPVTPGESVSISCRSSKSLLHSNGNTYLYWFLQRPGQSPQLLIYRMSNLASGVPDRFSGSGSGTAFTLRISRVEAEDVGVYYCMQHLEYPLTFGAGTKLELKR | – | – | – | no binding | no binding | no binding | – | no binding | binds | 0.09 | binds | – | – | binds | –
8F7 (antibody, V domains shown, mouse hybridoma antibody, purified) VH: EVQLVESGGRLVQPKRSLKLSCAASGFTFNPYAMYWIRQAPGQGLEWVARIRSKSNNYATYYADSVKDRFTISRDDSQSMLYLQMNNLKTEDTAMYYCVRGHQGTMDYWGQGTSVTVSS VL: DIVMTQAAPSVPVTPGESVSISCRSSKSLLHSNGNTYLYWFLQRPGQSPQLLTYRMSNLASGVPDRFSGSGSGTAFTLRISRVEAEDVGVYYCMQHLEYPFTFGGGTKLEIKR | – | – | – | no binding | no binding | no binding | no binding | no binding | binds | 1.56 | binds | 3.03 | – | – | –
1H4 (antibody, V domains shown, mouse hybridoma antibody, purified) VH: EVQLVESGGRLVQPKGSLKLSCAASGFTFNTYAMYWIRQAPGKGLEWVARIRSKSNNYATYYADSVKDRFTISRDDSQSMLYLQMNNLKTEDTAMYYCVRARFYYSDYGYAMDYWGQGTSVTVSS VL: DIVMTQAAPSVPVTPGESVSISCRSSKSLLHSNGNTYLYWFLQRPGQSPQLLIYRMSNLASGVPDRFSASGSGTAFTLRISRVEAEDVGVYYCMQHLEYPLTFGAGTKLELKR | – | – | – | no binding | no binding | no binding | – | no binding | binds | 0.32 | binds | 0.36 | – | binds | no binding
10A11 (antibody, V domains shown, mouse hybridoma antibody, purified; also called m10A11) VH: EVQLVESGGRLVQPKGSLKLSCAASGFAFNTYALYWIRQAPGKGLEWVARIRSKSNNYATYYADSVKDRFTISRDDSQSMLYLQMNNLKTEDTAMYYCVRARFYYSDYGYAMDYWGQGTSVTVSS VL: DIVMTQAAPSVPVTPGESVSISCRSSKSLLHSNGNTYLYWFLQRPGQSPQLLIYRMSNLASGVPDRFSGSGSGTAFTLRISRVEAEDVGVYYCMQHLEYPLTFGAGTKLELKR | 0.23 | – | – | no binding | no binding | no binding | – | no binding | binds | 0.08 | binds | 0.23 | – | binds | –

Now from value to binder:

IC50 (nM), Ca2+ influx by 200 nM hCCL1 (human CCR8 [1]) [nM] | IC50 ratio (WT IC50/mutant IC50) (human CCR8 [2]) [ratio] | IC50 ratio (WT IC50/mutant IC50) (human CCR8 [3]) [ratio] | binding result (human CCR4) | binding result (N-ter hCCR4-hCCR8) | binding result (mouse CCR8) | binding result (loop1 hCCR4-hCCR8 [4]) | binding result (hCCR8 (Y17A)) | binding result (loop2 hCCR4-hCCR8) | Neutralizing activity IC50 (nM), Ca2+ influx by 100 nM hCCL1 (human CCR8 [5]) [nM] | binding result (loop3 hCCR4-hCCR8) | IC50 (nM), Ca2+ influx by 200 nM hCCL1 (human CCR8 [6]) [nM] | IC50 (nM), Ca2+ influx by 200 nM hCCL1 (human CCR8 [7]) [nM] | binding result (loop1 hCCR4-hCCR8 [8]) | binding result (hCCR8 (K35A)) | Binder
0.15 | 1 | – | – | – | – | – | – | – | – | – | – | – | – | – | h10A11 (IGKV4-1/IGHV3-15 T94R) (antibody, V domains shown) VH: EVQLVESGGALVKPGGSLRLSCAASGFTFSTYALYWVRQAPGKGLEWVGRIRSKSNNYATYYADSVKDRFTISRDDSKNTLYLQMNSLKTEDTAVYYCTRARFYYSDYGYAMDYWGQGTLVTVSS VL: DIVMTQSPDSLAVSLGERATINCRSSKSLLHSNGNTYLYWYQQKPGQPPKLLIYRMSNLASGVPDRFSGSGSGTDFTLTISSLQAEDVAVYYCMQHLEYPLTFGQGTKLEIKR
– | – | – | no binding | no binding | no binding | no binding | no binding | binds | 0.4 | binds | 1.19 | – | – | – | 2C7 (antibody, V domains shown, mouse hybridoma antibody, purified) VH: QVQLKQSGPSLVQPSQSLSITCTVSGFSLTAYGVHWIRQSPGKGQEWLGVIWRGGSTDYNAAFMSRLTITKDNSKSQVFFKMNSLQADDTAIYYCAKKGGSYAMDYWGQGTSVTVSS VL: DVVLTQTPLSLPVSLGGQASISCRSSQSLVHSNGNTYLHWYLQKPGQSPKLLIYKVSNRFSGVPDRFSGSGSGTDFTLKISRVEAEDLGVYFCSQSTQVPLTFGAGTKLELKR
– | – | – | – | – | – | – | – | – | – | – | – | 0.46 | – | – | h19D7 (IGKV2-18/IGHV3-73) (antibody, V domains shown) VH: EVQLVESGGGLVQPGGSLKLSCAASGFTFSTYAMYWVRQASGKGLEWVGRIRSKSNNYATYYADSVKDRFTISRDDSKNTAYLQMNSLKTEDTAVYYCTRGGYGNYRYAMDYWGQGTTVTVSS VL: DIVMTQTPPSLPVNPGEPASISCRSSKSLLHSNGNTYLYWYLQKPGQSPQLLIYRVSNLASGVPDRFSGSGSGSDFTLKISWVEAEDVGVYYCMQHLEYPFTFGQGTKLEIK
